Measurements reported in patent publication US20230056815A1 (VIELA BIO, published 2023).

T1: FLT3 on RS4;11 cells (human, UniProt P36888 27-993)
T1 construct: whole, on cells; also called cell surface FLT3; CD135
T1 sequence (looked up): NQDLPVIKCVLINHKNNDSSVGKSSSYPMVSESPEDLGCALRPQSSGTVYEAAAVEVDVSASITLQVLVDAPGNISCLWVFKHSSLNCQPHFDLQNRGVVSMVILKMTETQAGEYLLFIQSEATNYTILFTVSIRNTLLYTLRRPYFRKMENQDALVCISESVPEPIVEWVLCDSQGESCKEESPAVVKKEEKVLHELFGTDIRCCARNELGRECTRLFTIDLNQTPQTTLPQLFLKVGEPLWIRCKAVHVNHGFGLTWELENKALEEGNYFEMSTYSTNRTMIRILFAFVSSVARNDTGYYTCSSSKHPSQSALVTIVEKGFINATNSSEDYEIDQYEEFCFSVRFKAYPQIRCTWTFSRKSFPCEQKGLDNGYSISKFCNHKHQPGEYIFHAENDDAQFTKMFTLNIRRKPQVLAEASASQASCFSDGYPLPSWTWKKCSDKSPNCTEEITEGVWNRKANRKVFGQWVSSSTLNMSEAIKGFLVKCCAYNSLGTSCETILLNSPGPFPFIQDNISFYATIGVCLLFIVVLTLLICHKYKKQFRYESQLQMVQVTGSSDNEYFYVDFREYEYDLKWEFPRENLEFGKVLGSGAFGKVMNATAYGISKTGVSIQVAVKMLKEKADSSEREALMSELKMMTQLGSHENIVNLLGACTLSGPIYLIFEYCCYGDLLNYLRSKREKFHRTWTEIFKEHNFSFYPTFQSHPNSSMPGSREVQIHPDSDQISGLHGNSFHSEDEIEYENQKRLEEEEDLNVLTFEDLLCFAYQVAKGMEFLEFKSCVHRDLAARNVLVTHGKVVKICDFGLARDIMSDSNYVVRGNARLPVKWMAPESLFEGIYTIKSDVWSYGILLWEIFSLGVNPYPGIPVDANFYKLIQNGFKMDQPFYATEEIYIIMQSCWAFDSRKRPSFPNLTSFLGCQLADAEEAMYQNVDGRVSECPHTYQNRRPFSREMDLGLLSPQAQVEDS

T2: hFLT3 receptor (human, UniProt P36888 27-541, limits assumed)
T2 construct: The construct is not described
T2 sequence (looked up): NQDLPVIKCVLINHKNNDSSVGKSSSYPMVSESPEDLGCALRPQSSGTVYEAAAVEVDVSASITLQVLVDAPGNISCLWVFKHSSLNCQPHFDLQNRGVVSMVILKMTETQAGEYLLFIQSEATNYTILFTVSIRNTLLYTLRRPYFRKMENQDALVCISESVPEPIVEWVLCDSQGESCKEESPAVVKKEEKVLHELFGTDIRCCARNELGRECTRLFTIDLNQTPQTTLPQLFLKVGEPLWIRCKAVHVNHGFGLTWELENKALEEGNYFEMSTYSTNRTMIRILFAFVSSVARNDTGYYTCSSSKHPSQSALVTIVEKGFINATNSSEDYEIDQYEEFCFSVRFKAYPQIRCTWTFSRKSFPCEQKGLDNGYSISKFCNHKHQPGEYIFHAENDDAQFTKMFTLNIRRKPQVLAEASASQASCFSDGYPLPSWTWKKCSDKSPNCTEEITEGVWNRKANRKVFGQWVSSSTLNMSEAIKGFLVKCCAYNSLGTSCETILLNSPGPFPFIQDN

B1: human soluble FLT3L (recombinant huFLT3L) (ligand, UniProt P49771 27-184, looked up)
chain: TQDCSFQHSPISSDFAVKIRELSDYLLQDYPVTVASNLQDEELCGGLWRLVLAQRWMERLKTVAGSKMQGLLERVNTEIHFVTKCAFQPPPSCLRFVQTNISRLLQETSEQLVALKPWITRQNFSRCLELQCQPDSSTLPPPWSPRPLEATAPTAPQP
notes: extracellular domain; also called rhuFLT3L; hFLT3L

Experiments:
[1] = biological target: B1; assay: Biacore, Fab, kinetic (koff/kon)
[2] = biological target: T3, cynomolgus monkey soluble FLT3L (cynomolgus monkey); assay: Biacore, Fab, kinetic (koff/kon)
T3 construct: extracellular domain; also called cyno sFLT3L; cyno FLT3L

[3] = biological target: B1; assay: Biacore, Fab
[4] = biological target: T3, cynomolgus monkey soluble FLT3L; assay: Biacore, Fab
[5] = biological target: B1; assay: Biacore, Fab; remark: listed apart in the source
[6] = biological target: T3, cynomolgus monkey soluble FLT3L; assay: Biacore, Fab; remark: listed apart in the source
[7] = biological target: B1; assay: Biacore
[8] = biological target: B1; assay: Biacore, Fab, steady-state
[9] = biological target: T3, cynomolgus monkey soluble FLT3L; assay: Biacore, Fab, steady-state
[10] = biological target: T1, FLT3 on RS4;11 cells; assay: flow cytometry: biotinylated rhuFLT3L on RS4;11 cells, detected with BV421-streptavidin
[11] = biological target: T2, hFLT3 receptor; assay: Biacore
[12] = biological target: T1, FLT3 on RS4;11 cells; assay: cell-based or functional assay

Kd [1] [nM]	Kd [2] [nM]	fold KD against the remaining lead antibodies [3] [fold]	fold KD against the remaining lead antibodies [4] [fold]	koff [5] [s⁻¹]	kon [5] [M⁻¹ s⁻¹]	koff [6] [s⁻¹]	kon [6] [M⁻¹ s⁻¹]	Kd [7] [nM]	koff [7] [s⁻¹]	kon [7] [M⁻¹ s⁻¹]	Kd [8] [nM]	Kd [9] [nM]	EC50 (read off the curve) [10] [nM]	Kd [11] [nM]	koff [11] [s⁻¹]	kon [11] [M⁻¹ s⁻¹]	fold decrease in Allophycocyanin (APC) MFI, an indicator of FLT3 expression, on RS4;11 cells [12] [fold]	Binder
1160	1160	> 50	> 50	0.0707	61000	0.0707	61000	1160	0.0707	60000	1600	1610	–	–	–	–	–	CAT5D9 Fab (Fab, V domains shown, also called 5D9 parent) VH: QVQLVQSGAEVKKPGSSVKVSCKISGGTFSSYALSWVRQAPGQGLEWMGGIIPVFRTASYAQKFQGRVTITVDESASTGYIELSSLKSEDTATYYCASNNYVWGSYRFWGQGTTVTVSS VL: NFMLTQPHSVSESPGKTVTISCTRTSGNIAGYFVQWYQQRPGSSPTTVIYEDYQRPSGVPDRFSGSIDRSSNSASLTISGLKPDDEADYYCQSYDDTSQGVFGAGTKVTVL
–	–	–	–	–	–	–	–	–	–	–	–	–	~0.1	22.3	0.00812	360000	25	B1
